Paper PMC8280820, “Phospho‐regulation, nucleotide binding and ion access control in potassium‐chloride cotransporters” (The EMBO Journal, 2021)

Molecular target: the molecule itself
Assay: cryo-EM structure; single-particle cryo-EM of the purified transporter in digitonin, 150 mM NaCl, 20 mM HEPES pH 7.5 (KCC3b-PM also in KCl); homodimer

B1: KCC1Δ19 (human potassium-chloride cotransporter KCC1, isoform A, N-terminally deleted, L20-S1085) (domain or fragment, UniProt Q9UP95 20-1085, looked up)
chain: LEGLSWVDYGERAELDDSDGHGNHRESSPFLSPLEASRGIDYYDRNLALFEEELDIRPKVSSLLGKLVSYTNLTQGAKEHEEAESGEGTRRRAAEAPSMGTLMGVYLPCLQNIFGVILFLRLTWMVGTAGVLQALLIVLICCCCTLLTAISMSAIATNGVVPAGGSYFMISRSLGPEFGGAVGLCFYLGTTFAAAMYILGAIEILLTYIAPPAAIFYPSGAHDTSNATLNNMRVYGTIFLTFMTLVVFVGVKYVNKFASLFLACVIISILSIYAGGIKSIFDPPVFPVCMLGNRTLSRDQFDICAKTAVVDNETVATQLWSFFCHSPNLTTDSCDPYFMLNNVTEIPGIPGAAAGVLQENLWSAYLEKGDIVEKHGLPSADAPSLKESLPLYVVADIATSFTVLVGIFFPSVTGIMAGSNRSGDLRDAQKSIPVGTILAIITTSLVYFSSVVLFGACIEGVVLRDKYGDGVSRNLVVGTLAWPSPWVIVIGSFFSTCGAGLQSLTGAPRLLQAIAKDNIIPFLRVFGHGKVNGEPTWALLLTALIAELGILIASLDMVAPILSMFFLMCYLFVNLACAVQTLLRTPNWRPRFKYYHWALSFLGMSLCLALMFVSSWYYALVAMLIAGMIYKYIEYQGAEKEWGDGIRGLSLSAARYALLRLEEGPPHTKNWRPQLLVLLKLDEDLHVKYPRLLTFASQLKAGKGLTIVGSVIQGSFLESYGEAQAAEQTIKNMMEIEKVKGFCQVVVASKVREGLAHLIQSCGLGGMRHNSVVLGWPYGWRQSEDPRAWKTFIDTVRCTTAAHLALLVPKNIAFYPSNHERYLEGHIDVWWIVHDGGMLMLLPFLLRQHKVWRKCRMRIFTVAQMDDNSIQMKKDLAVFLYHLRLEAEVEVVEMHNSDISAYTYERTLMMEQRSQMLRQMRLTKTEREREAQLVKDRHSALRLESLYSDEEDESAVGADKIQMTWTRDKYMTETWDPSHAPDNFRELVHIKPDQSNVRRMHTAVKLNEVIVTRSHDARLVLLNMPGPPRNSEGDENYMEFLEVLTEGLERVLLVRGGGREVITIYS
modifications: phosphoserine at S88, S734 and S1050 (by proteomics analysis); not phosphorylated at T926/T983
notes: KCC1 (SLC12A4), human, isoform A, residues L20-S1085; Cloned into the pHTBV vector with and without GFP; also called KCC1 (construct Δ19); Δ19-deleted human KCC1; not shown: twin-Strep, C-terminal, cleaved; His10, C-terminal, cleaved
  stoichiometry N: 2

B2: KCC3b-PM (human potassium-chloride cotransporter KCC3 isoform B, phospho-mimetic S45D/T940D/T997D, M1-S1099) (natural protein, UniProt Q9UHW9-2 1-1099, looked up)
chain: MPHFTVTKVEDPEEGAAASISQEPSLADIKARIQDSDEPDLSQNDITGEHSQLLDDGHKKARNAYLNNSNYEEGDEYFDKNLALFEEEMDTRPKVSSLLNRMANYTNLTQGAKEHEEAENITEGKKKPTKTPQMGTFMGVYLPCLQNIFGVILFLRLTWVVGTAGVLQAFAIVLICCCCTMLTAISMSAIATNGVVPAGGSYFMISRALGPEFGGAVGLCFYLGTTFAAAMYILGAIEIFLVYIVPRAAIFHSDDALKESAAMLNNMRVYGTAFLVLMVLVVFIGVRYVNKFASLFLACVIVSILAIYAGAIKSSFAPPHFPVCMLGNRTLSSRHIDVCSKTKEINNMTVPSKLWGFFCNSSQFFNATCDEYFVHNNVTSIQGIPGLASGIITENLWSNYLPKGEIIEKPSAKSSDVLGSLNHEYVLVDITTSFTLLVGIFFPSVTGIMAGSNRSGDLKDAQKSIPIGTILAILTTSFVYLSNVVLFGACIEGVVLRDKFGDAVKGNLVVGTLSWPSPWVIVIGSFFSTCGAGLQSLTGAPRLLQAIAKDNIIPFLRVFGHSKANGEPTWALLLTAAIAELGILIASLDLVAPILSMFFLMCYLFVNLACALQTLLRTPNWRPRFRYYHWALSFMGMSICLALMFISSWYYAIVAMVIAGMIYKYIEYQGAEKEWGDGIRGLSLSAARFALLRLEEGPPHTKNWRPQLLVLLKLDEDLHVKHPRLLTFASQLKAGKGLTIVGSVIVGNFLENYGEALAAEQTIKHLMEAEKVKGFCQLVVAAKLREGISHLIQSCGLGGMKHNTVVMGWPNGWRQSEDARAWKTFIGTVRVTTAAHLALLVAKNISFFPSNVEQFSEGNIDVWWIVHDGGMLMLLPFLLKQHKVWRKCSIRIFTVAQLEDNSIQMKKDLATFLYHLRIEAEVEVVEMHDSDISAYTYERDLMMEQRSQMLRHMRLSKTERDREAQLVKDRNSMLRLTSIGSDEDEETETYQEKVHMDWTKDKYMASRGQKAKSMEGFQDLLNMRPDQSNVRRMHTAVKLNEVIVNKSHEAKLVLLNMPGPPRNPEGDENYMEFLEVLTEGLERVLLVRGGGSEVITIYS
modifications: phosphorylated at S685, T727, S930 and Y1070 (by proteomics analysis; the paper says likely only in a subset of the particles for some sites); not phosphorylated at T106/T109
notes: KCC3 (SLC12A6), human, isoform B (KCC3b), residues M1-S1099 (printed length 1099); numbers count on: the B-isoform; Synthesized gene (GenScript, Twist Bioscience) subcloned into pHTBV with C-terminal twin-strep, 10-His and GFP; also called KCC3‐PM; KCC3b (construct PM); not shown: twin-Strep, C-terminal, cleaved; His10, C-terminal, cleaved
  stoichiometry N: 2
